From US20230257475A1
Read-outs that look alike come from different tables or passages of the source.

Tests used:
human CD20 (human) [1] = target: human CD20 (human) (UniProt P11836); experiment: flow cytometry on Raji cells (CD20 on the cell surface), serial dilution of the mAb, detection with PE-conjugated mouse anti-human IgG1Fc, MFI
human CD20 (human) [2] = target: human CD20 (human) (UniProt P11836); experiment: as above; remark: listed apart in the source
human CD22 (human) = human CD22 (human) (UniProt P20273); experiment: flow cytometry on K562.huCD22.Luc cells against parental K562 cells
[3] = target: human CD19, CD20 and CD22 on CD19+CD20+CD22+ tri-positive B lymphoma cells (Raji, Daudi) (human), P15391; experiment: cell-based or functional assay

UniProt P11836, sequence (P11836 whole entry): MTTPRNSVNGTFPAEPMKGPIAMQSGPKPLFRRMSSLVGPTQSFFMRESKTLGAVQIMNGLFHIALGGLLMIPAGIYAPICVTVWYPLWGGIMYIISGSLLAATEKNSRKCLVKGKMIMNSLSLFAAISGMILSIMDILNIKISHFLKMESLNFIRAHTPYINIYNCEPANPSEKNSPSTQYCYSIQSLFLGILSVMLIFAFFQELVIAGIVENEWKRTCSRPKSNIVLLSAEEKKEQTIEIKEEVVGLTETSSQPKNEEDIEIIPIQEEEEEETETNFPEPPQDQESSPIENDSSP

Molecule Leu16 Fab-huIgG1Fc mAb (antibody) has an EC50 (human CD20 (human) [1]) of 8.5 nM and an EC50 (human CD20 (human) [2]) of 13.2 nM.

“PE conjugated anti-human CD22 antibody (Miltenyi Biotec. Cat. No. 130-105-086)” was tested, and the MFI fold over K562 cells (negative control) (human CD22 (human)) was 642 fold.

Work on Rituximab Fab-huIgG1Fc mAb (antibody) yielded an EC50 (human CD20 (human) [1]) of 8.1 nM.

B1: AIO-8C1 CAR (protein)
chain: QVQLVESGGGSVQAGGSLRLSCGASGNINSRNCMGWFRQAPGKEREGVAAIGQVTGRSYYVDSVKGRFTISLDNAKNTLYLQMNTLKPEDTAMYYCAAAPGCLLSALRSADYRNWGQGTQVTVSSGGGGSEVQLVESGPGLVKPSQTLSLTCTVSGASITTGEFYWNWFRQPPGKGLEWMGAIAASGSTTYSPSFESRTSISRDTSENQFYLQLSSVTPEDTAVYYCGRSFGVAAVTTGQNRGQGTQVTVSSGGGGSQIQLVESGGGLVQPGGSLRLSCAASGFTFSNYPMTWLRQAPGKGLESVSDITSGGDRPYYADSVKGRFTISRDNAKNMLYLEMNSLKTEDTAVYYCATWDRTLTGQGTQVTVSSTSTTTPAPRPPTPAPTIASQPLSLRPEACRPAAGGAVHTRGLDFACDIYIWAPLAGTCGVLLLSLVITLYCKRGRKKLLYIFKQPFMRPVQTTQEEDGCSCRFPEEEEGGCELRVKFSRSADAPAYQQGQNQLYNELNLGRREEYDVLDKRRGRDPEMGGKPRRKNPQEGLYNELQKDKMAEAYSEIGMKGERRRGKGHDGLYQGLSTATKDTYDALHMQALPPR
In the case of B1, the IFN-γ release in co-culture with Raji cells, 24 hours, against AIO-7C1 CAR-T cells [3] is reported as 2 fold.
